Data from patent US20230416330A1, “Optimized GIP Peptide Analogues” (Antag Therapeutics ApS, priority 2019, published 2023).
Starred links: 1 amine or outer side, 2 acyl side, 3 side chain; linkers in the order of their positions; H or OH if unused. Non-standard residues stand in square brackets, D forms with d. Groups on a side chain read outwards from the residue. No end group written: not given here. *: point of attachment. C18 diacid = O=C(O)CCCCCCCCCCCCCCCCC(=O)*; C16 diacid = O=C(O)CCCCCCCCCCCCCCC(=O)*; γGlu = O=C(O)[C@H](CCC(=O)[*:2])N[*:1]; Glutaryl = O=C(CCCC(=O)[*:2])[*:1]; AEEA = NCCOCCOCC(=O)O; Aib = CC(C)(N)C(=O)O

T1: human GIP receptor (human, UniProt P48546 22-466)
T1 sequence (looked up): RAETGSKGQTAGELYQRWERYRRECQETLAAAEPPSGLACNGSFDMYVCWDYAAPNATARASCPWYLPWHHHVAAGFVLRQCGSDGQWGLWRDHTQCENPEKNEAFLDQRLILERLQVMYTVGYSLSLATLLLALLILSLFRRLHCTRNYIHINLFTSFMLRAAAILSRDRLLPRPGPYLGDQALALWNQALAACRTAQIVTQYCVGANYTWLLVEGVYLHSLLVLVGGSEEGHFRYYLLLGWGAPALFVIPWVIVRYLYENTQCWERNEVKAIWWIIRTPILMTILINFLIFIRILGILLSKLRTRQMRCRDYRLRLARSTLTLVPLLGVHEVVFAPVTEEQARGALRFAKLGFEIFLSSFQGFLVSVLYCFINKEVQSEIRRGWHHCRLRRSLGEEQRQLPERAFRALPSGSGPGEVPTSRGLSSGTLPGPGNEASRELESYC


How the values were obtained:
human GIP receptor [1] = target: T1, human GIP receptor; assay: cell-based or functional assay
human GIP receptor [2] = target: T1, human GIP receptor; assay: cell-based or functional assay; remark: listed apart in the source

Row | Binder | nM (Kb, Gaddum assay, cAMP) (human GIP receptor [1]) [nM] | pKb (Gaddum assay, cAMP) (human GIP receptor [1]) | cAMP antagonism % inhib (CisBio assay) (human GIP receptor [2]) [%] | cAMP antagonism nM (IC50, CisBio assay) (human GIP receptor [2]) [nM] | cAMP antagonism pIC50 (CisBio assay) (human GIP receptor [2])
1 | EGTFISEYSI[Aib]MEKIK(C16 diacid)QQDFVEWLLAQKPSSGAPPPS-OH (N-terminus assumed; SMILES CC[C@H](C)[C@H](NC(=O)[C@H](CCCCN)NC(=O)[C@H](CCC(=O)O)NC(=O)[C@H](CCSC)NC(=O)C(C)(C)NC(=O)[C@@H](NC(=O)[C@H](CO)NC(=O)[C@H](Cc1ccc(O)cc1)NC(=O)[C@H](CCC(=O)O)NC(=O)[C@H](CO)NC(=O)[C@@H](NC(=O)[C@H](Cc1ccccc1)NC(=O)[C@@H](NC(=O)CNC(=O)[C@@H](N)CCC(=O)O)[C@@H](C)O)[C@@H](C)CC)[C@@H](C)CC)C(=O)N[C@@H](CCCCNC(=O)CCCCCCCCCCCCCCC(=O)O)C(=O)N[C@@H](CCC(N)=O)C(=O)N[C@@H](CCC(N)=O)C(=O)N[C@@H](CC(=O)O)C(=O)N[C@@H](Cc1ccccc1)C(=O)N[C@H](C(=O)N[C@@H](CCC(=O)O)C(=O)N[C@@H](Cc1c[nH]c2ccccc12)C(=O)N[C@@H](CC(C)C)C(=O)N[C@@H](CC(C)C)C(=O)N[C@@H](C)C(=O)N[C@@H](CCC(N)=O)C(=O)N[C@@H](CCCCN)C(=O)N1CCC[C@H]1C(=O)N[C@@H](CO)C(=O)N[C@@H](CO)C(=O)NCC(=O)N[C@@H](C)C(=O)N1CCC[C@H]1C(=O)N1CCC[C@H]1C(=O)N1CCC[C@H]1C(=O)N[C@@H](CO)C(=O)O)C(C)C) [AT716] | 0.29 | 9.5 |  |  | 
2 | EGTFISEYSIALEKIK(C16 diacid)QQEFVEWLLAQKPSSGAPPPS-OH [AT718] | 0.33 | 9.5 |  |  | 
3 | EGTFISEYSIAMEKIK(C16 diacid)QQEFVEWLLAQKPSSGAPPPS-OH (N-terminus assumed; SMILES CC[C@H](C)[C@H](NC(=O)[C@H](CO)NC(=O)[C@H](Cc1ccc(O)cc1)NC(=O)[C@H](CCC(=O)O)NC(=O)[C@H](CO)NC(=O)[C@@H](NC(=O)[C@H](Cc1ccccc1)NC(=O)[C@@H](NC(=O)CNC(=O)[C@@H](N)CCC(=O)O)[C@@H](C)O)[C@@H](C)CC)C(=O)N[C@@H](C)C(=O)N[C@@H](CCSC)C(=O)N[C@@H](CCC(=O)O)C(=O)N[C@@H](CCCCN)C(=O)N[C@H](C(=O)N[C@@H](CCCCNC(=O)CCCCCCCCCCCCCCC(=O)O)C(=O)N[C@@H](CCC(N)=O)C(=O)N[C@@H](CCC(N)=O)C(=O)N[C@@H](CCC(=O)O)C(=O)N[C@@H](Cc1ccccc1)C(=O)N[C@H](C(=O)N[C@@H](CCC(=O)O)C(=O)N[C@@H](Cc1c[nH]c2ccccc12)C(=O)N[C@@H](CC(C)C)C(=O)N[C@@H](CC(C)C)C(=O)N[C@@H](C)C(=O)N[C@@H](CCC(N)=O)C(=O)N[C@@H](CCCCN)C(=O)N1CCC[C@H]1C(=O)N[C@@H](CO)C(=O)N[C@@H](CO)C(=O)NCC(=O)N[C@@H](C)C(=O)N1CCC[C@H]1C(=O)N1CCC[C@H]1C(=O)N1CCC[C@H]1C(=O)N[C@@H](CO)C(=O)O)C(C)C)[C@@H](C)CC) [AT614] |  |  | 100 | 1.08 | 9
4 | EGTFISDYSIAMDKIK(C16 diacid)QQDFVEWLLAQKPSSGAPPPS-OH (N-terminus assumed; SMILES CC[C@H](C)[C@H](NC(=O)[C@H](CO)NC(=O)[C@H](Cc1ccc(O)cc1)NC(=O)[C@H](CC(=O)O)NC(=O)[C@H](CO)NC(=O)[C@@H](NC(=O)[C@H](Cc1ccccc1)NC(=O)[C@@H](NC(=O)CNC(=O)[C@@H](N)CCC(=O)O)[C@@H](C)O)[C@@H](C)CC)C(=O)N[C@@H](C)C(=O)N[C@@H](CCSC)C(=O)N[C@@H](CC(=O)O)C(=O)N[C@@H](CCCCN)C(=O)N[C@H](C(=O)N[C@@H](CCCCNC(=O)CCCCCCCCCCCCCCC(=O)O)C(=O)N[C@@H](CCC(N)=O)C(=O)N[C@@H](CCC(N)=O)C(=O)N[C@@H](CC(=O)O)C(=O)N[C@@H](Cc1ccccc1)C(=O)N[C@H](C(=O)N[C@@H](CCC(=O)O)C(=O)N[C@@H](Cc1c[nH]c2ccccc12)C(=O)N[C@@H](CC(C)C)C(=O)N[C@@H](CC(C)C)C(=O)N[C@@H](C)C(=O)N[C@@H](CCC(N)=O)C(=O)N[C@@H](CCCCN)C(=O)N1CCC[C@H]1C(=O)N[C@@H](CO)C(=O)N[C@@H](CO)C(=O)NCC(=O)N[C@@H](C)C(=O)N1CCC[C@H]1C(=O)N1CCC[C@H]1C(=O)N1CCC[C@H]1C(=O)N[C@@H](CO)C(=O)O)C(C)C)[C@@H](C)CC) [AT617] |  |  | 91 | 0.794 | 9.1
5 | Glutaryl-GTFISEYSI[Aib]LEKIK(C16 diacid)QQEFVEWLLAQKPSSGAPPPS-OH (SMILES CC[C@H](C)[C@H](NC(=O)[C@H](CCCCN)NC(=O)[C@H](CCC(=O)O)NC(=O)[C@H](CC(C)C)NC(=O)C(C)(C)NC(=O)[C@@H](NC(=O)[C@H](CO)NC(=O)[C@H](Cc1ccc(O)cc1)NC(=O)[C@H](CCC(=O)O)NC(=O)[C@H](CO)NC(=O)[C@@H](NC(=O)[C@H](Cc1ccccc1)NC(=O)[C@@H](NC(=O)CNC(=O)CCCC(=O)O)[C@@H](C)O)[C@@H](C)CC)[C@@H](C)CC)C(=O)N[C@@H](CCCCNC(=O)CCCCCCCCCCCCCCC(=O)O)C(=O)N[C@@H](CCC(N)=O)C(=O)N[C@@H](CCC(N)=O)C(=O)N[C@@H](CCC(=O)O)C(=O)N[C@@H](Cc1ccccc1)C(=O)N[C@H](C(=O)N[C@@H](CCC(=O)O)C(=O)N[C@@H](Cc1c[nH]c2ccccc12)C(=O)N[C@@H](CC(C)C)C(=O)N[C@@H](CC(C)C)C(=O)N[C@@H](C)C(=O)N[C@@H](CCC(N)=O)C(=O)N[C@@H](CCCCN)C(=O)N1CCC[C@H]1C(=O)N[C@@H](CO)C(=O)N[C@@H](CO)C(=O)NCC(=O)N[C@@H](C)C(=O)N1CCC[C@H]1C(=O)N1CCC[C@H]1C(=O)N1CCC[C@H]1C(=O)N[C@@H](CO)C(=O)O)C(C)C) [AT717] | 0.17 | 9.8 |  |  | 
6 | EGTFISEYSI[Aib]LEKIK([AEEA-AEEA-γGlu-C18 diacid])QQEFVEWLLAQKPSSGAPPPS-NH2 (N-terminus assumed; SMILES CC[C@H](C)[C@H](NC(=O)[C@H](CCCCN)NC(=O)[C@H](CCC(=O)O)NC(=O)[C@H](CC(C)C)NC(=O)C(C)(C)NC(=O)[C@@H](NC(=O)[C@H](CO)NC(=O)[C@H](Cc1ccc(O)cc1)NC(=O)[C@H](CCC(=O)O)NC(=O)[C@H](CO)NC(=O)[C@@H](NC(=O)[C@H](Cc1ccccc1)NC(=O)[C@@H](NC(=O)CNC(=O)[C@@H](N)CCC(=O)O)[C@@H](C)O)[C@@H](C)CC)[C@@H](C)CC)C(=O)N[C@@H](CCCCNC(=O)COCCOCCNC(=O)COCCOCCNC(=O)CC[C@H](NC(=O)CCCCCCCCCCCCCCCCC(=O)O)C(=O)O)C(=O)N[C@@H](CCC(N)=O)C(=O)N[C@@H](CCC(N)=O)C(=O)N[C@@H](CCC(=O)O)C(=O)N[C@@H](Cc1ccccc1)C(=O)N[C@H](C(=O)N[C@@H](CCC(=O)O)C(=O)N[C@@H](Cc1c[nH]c2ccccc12)C(=O)N[C@@H](CC(C)C)C(=O)N[C@@H](CC(C)C)C(=O)N[C@@H](C)C(=O)N[C@@H](CCC(N)=O)C(=O)N[C@@H](CCCCN)C(=O)N1CCC[C@H]1C(=O)N[C@@H](CO)C(=O)N[C@@H](CO)C(=O)NCC(=O)N[C@@H](C)C(=O)N1CCC[C@H]1C(=O)N1CCC[C@H]1C(=O)N1CCC[C@H]1C(=O)N[C@@H](CO)C(N)=O)C(C)C) [AT714] | 0.43 | 9.4 |  |  | 
7 | EGTFISEYSI[Aib]MEKIK(C16 diacid)QQDFVEWLLAQKPSSGAPPPS-OH (N-terminus assumed; SMILES CC[C@H](C)[C@H](NC(=O)[C@H](CCCCN)NC(=O)[C@H](CCC(=O)O)NC(=O)[C@H](CCSC)NC(=O)C(C)(C)NC(=O)[C@@H](NC(=O)[C@H](CO)NC(=O)[C@H](Cc1ccc(O)cc1)NC(=O)[C@H](CCC(=O)O)NC(=O)[C@H](CO)NC(=O)[C@@H](NC(=O)[C@H](Cc1ccccc1)NC(=O)[C@@H](NC(=O)CNC(=O)[C@@H](N)CCC(=O)O)[C@@H](C)O)[C@@H](C)CC)[C@@H](C)CC)C(=O)N[C@@H](CCCCNC(=O)CCCCCCCCCCCCCCC(=O)O)C(=O)N[C@@H](CCC(N)=O)C(=O)N[C@@H](CCC(N)=O)C(=O)N[C@@H](CC(=O)O)C(=O)N[C@@H](Cc1ccccc1)C(=O)N[C@H](C(=O)N[C@@H](CCC(=O)O)C(=O)N[C@@H](Cc1c[nH]c2ccccc12)C(=O)N[C@@H](CC(C)C)C(=O)N[C@@H](CC(C)C)C(=O)N[C@@H](C)C(=O)N[C@@H](CCC(N)=O)C(=O)N[C@@H](CCCCN)C(=O)N1CCC[C@H]1C(=O)N[C@@H](CO)C(=O)N[C@@H](CO)C(=O)NCC(=O)N[C@@H](C)C(=O)N1CCC[C@H]1C(=O)N1CCC[C@H]1C(=O)N1CCC[C@H]1C(=O)N[C@@H](CO)C(=O)O)C(C)C) [AT616] |  |  | 100 | 0.473 | 9.3
8 | Glutaryl-GTFISDYSI[Aib]MDKIK(C16 diacid)QQDFVEWLLAQKPSSGAPPPS-OH [AT715] | 0.19 | 9.7 |  |  | 
